These results are taken from US5945585.

One experiment deals with caproyl-ACP (10:0-ACP). The settings on record: scale: pmoles per min per microliter of cell lysate.
Experiment [1] deals with [14C]oleoyl-ACP made from E. coli acyl carrier protein (E. coli) (UniProt P0A6A8). The settings on record: scale: pmoles per min per microliter of cell lysate.
A further experiment concerns the target lauryl-ACP (12:0-ACP). The settings on record: scale: pmoles per min per microliter of cell lysate.
Experiment [2] addresses [14C]oleoyl-ACP made from E. coli acyl carrier protein (E. coli) (UniProt P0A6A8). The settings on record: scale: times the E. coli background thioesterase activity.
Experiment [3] deals with [14C]stearoyl-ACP made from E. coli acyl carrier protein (E. coli) (UniProt P0A6A8).
Experiment [4] addresses [14C]oleoyl-ACP made from E. coli acyl carrier protein (E. coli) (UniProt P0A6A8).

In the case of “β-galactosidase fusion protein of the Cuphea viscossisima oleoyl-ACP thioesterase precursor (p1A insert in pBluescript) (enzyme)”, the results for the activity per microliter of cell lysate (in the experiment with caproyl-ACP (10:0-ACP); in experiment [1]; with lauryl-ACP (12:0-ACP)) were 0.05, 15.5 and 0.1, respectively.

In experiment [2], “β-galactosidase fusion protein of the Brassica napus oleoyl-ACP thioesterase (p5C insert in pBluescript SK, correct orientation) (enzyme)” registered an Oleoyl-ACP thioesterase activity of 26.

B1: soybean seed acyl-ACP thioesterase, purified from developing soybean seeds (Glycine max cultivar Wye) (enzyme)
chain: RVEADPGTLADRLRVGSLTEDGLSYKEKFIVRSYEVGINKTATVETIANLLQEVGCNHAQSVGYSTDGFATTPTMRKLRLIWVTARMHIEIYKYPAWSDIVEIETWCQGEGRVGTRRDFILKDYATDEVIGRATSKWVMMNQDTRRLQKVSDDVKEEYLVFCPREPRLAIPEADSNSLKKIPKLEDPAQYSRLGLVPRRADLDMNQHVNNVTYIGWVLESMPQEIIDSHELQSITLDYRRECGQHDIVDSLTSVEAIQGGAEAVPELKGTNGSATAREDKHEHQQFLHLLRLSTEGLEINRGRTEWRKKAPR
In turn, B1 showed a Net pmol/µL/min (standard acyl-ACP thioesterase assay) in experiment [3] of 4.07 pmol/µL/min.

B2: soybean seed acyl-ACP thioesterase expressed from the phaseolin:soybean thioesterase transgene (pZPHTE1) in Brassica napus line 241 (enzyme)
chain: B1 chain
Molecule B2 had a Thioesterase Activity (nmole min^-1 embryo^-1), nmoles of 18:1-ACP hydrolyzed per embryo per minute (nmole min^-1 embryo^-1) in experiment [4] of 4.53.
